According to paper PMC7800377, “A molecular mechanism for LINC complex branching by structurally diverse SUN-KASH 6:6 assemblies” (eLife, 2021):
Changes are numbered by the printed parent chain.

T1: GCN4-SUN2 C705A (His6-GCN4 fusion of SUN2 522–717 C705A) (human, UniProt Q9UH99 522-717, C705A)
T1 construct: SUN2, human, SUN domain, residues 522-717, C705A; The GCN4 tag is a trimerising tag (Sosa et al., 2012); not shown: His6, N-terminal, kept; GCN4, N-terminal, kept
T1 sequence (looked up): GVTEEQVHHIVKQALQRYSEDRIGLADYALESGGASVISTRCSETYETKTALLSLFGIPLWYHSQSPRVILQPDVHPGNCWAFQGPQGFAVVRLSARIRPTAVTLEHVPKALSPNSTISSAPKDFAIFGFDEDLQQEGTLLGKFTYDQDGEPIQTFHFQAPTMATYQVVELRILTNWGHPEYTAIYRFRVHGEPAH

B1: KASH5 (construct not told; unpublished findings) (natural protein, human, UniProt Q8N6L0 1-562, looked up)
chain: MDLPEGPVGGPTAEMYLRERPEEARLGMPVSLEEQILNSTFEACDPQRTGTVAVAQVLAYLEAVTGQGPQDARLQTLANSLDPNGEGPKATVDLDTFLVVMRDWIAACQLHGGLELEEETAFQGALTSRQLPSGCPEAEEPANLESFGGEDPRPELQATADLLSSLEDLELSNRRLVGENAKLQRSMETAEEGSARLGEEILALRKQLHSTQQALQFAKAMDEELEDLKTLARSLEEQNRSLLAQARQAEKEQQHLVAEMETLQEENGKLLAERDGVKKRSQELAMEKDTLKRQLFECEHLICQRDTILSERTRDVESLAQTLEEYRVTTQELRLEISRLEEQLSQTYEGPDELPEGAQLRRVGWTELLPPSLGLEIEAIRQKQEVATADLSNPLCGVWQWEEVIHETSEETEFPSEAPAGGQRNFQGEPAHPEEGRKEPSMWLTRREEEEDAESQVTADLPVPLGAPRPGDIPENPPERPARRELQQALVPVMKKLVPVRRRAWGQLCLPPQRLRVTRHPLIPAPVLGLLLLLLLSVLLLGPSPPPTWPHLQLCYLQPPPV
notes: KASH5, human; Told only as 'KASH5 is dimeric (Gurusaran and Davies, unpublished findings)'
B2: MBP-KASH1 (His6-MBP fusion of the KASH domain of human Nesprin-1, residues 8769–8797) (domain or fragment)
chain: not shown
notes: Nesprin-1, human, C-terminal KASH domain, residues 8769-8797
B3: MBP-KASH5 (His6-MBP fusion of the KASH domain of human KASH5, residues 542–562) (domain or fragment, UniProt Q8N6L0 542-562, looked up)
chain: GPSPPPTWPHLQLCYLQPPPV
notes: KASH5, human, C-terminal KASH domain, residues 542-562
B4: MBP-KASH4 (His6-MBP fusion of the KASH domain of human Nesprin-4, residues 376–404) (domain or fragment, UniProt Q8N205 376-404, looked up)
chain: ASGGPCCSHARIPRTPYLVLSYVNGLPPV
notes: Nesprin-4, human, C-terminal KASH domain, residues 376-404
B5: GCN4-SUN2 (His6-GCN4 fusion of the SUN domain of human SUN2, residues 522–717), wild-type (domain or fragment, UniProt Q9UH99 522-717, looked up)
chain: T1 sequence (looked up) with A184C
notes: SUN2, human, SUN domain, residues 522-717; The GCN4 tag is a trimerising tag (Sosa et al., 2012); not shown: His6, N-terminal, kept; GCN4, N-terminal, kept
B6: GCN4-SUN1 (His6-GCN4 fusion of the SUN domain of human SUN1, residues 616–812), wild-type (domain or fragment)
chain: GITEAQARAIVNSALKLYSQDKTGMVDFALESGGGSILSTRCSETYETKTALMSLFGIPLWYFSQSPRVVIQPDIYPGNCWAFKGSQGYLVVRLSMMIHPAAFTLEHIPKTLSPTGNISSAPKDFAVYGLENEYQEEGQLLGQFTYDQDGESLQMFQALKRPDDTAFQIVELRIFSNWGHPEYTCLYRFRVHGEPVK

Experiments:
[1] = biological target: the molecule itself; test: not stated; unpublished findings (Gurusaran and Davies)
[2] = biological target: B6; test: SEC-MALS; co-expressed and co-purified samples at >1 mg/ml on Superdex 200 Increase 10/300 GL in 20 mM Tris pH 8.0, 150 mM KCl, 2 mM DTT; conditions: both partners purified
[3] = biological target: T1, GCN4-SUN2 C705A (His6-GCN4 fusion of …); test: as above; conditions: both partners purified
[4] = biological target: B5; test: as above; conditions: both partners purified
[5] = biological target: the molecule itself; test: as above

stoichiometry N [2] | Binder | stoichiometry N [5] | also measured
 | B1 |  | stoichiometry N [1]: 2
1 binder:target ratio (6:6) | B2 |  | stoichiometry N [3]: 1 binder:target ratio (6:6)
1 binder:target ratio (6:6) | B3 |  | 
1 binder:target ratio (6:6) | B4 |  | stoichiometry N [4]: 1 binder:target ratio (6:6)
 | B5 | 3 | 
 | B6 | 3 | 
